Experimental data reported in US20210253725A1 (BIONTECH, published 2021).

T1: CD27 expressed on the cell surface (HT1080_CD27 cells) (human, UniProt P26842 20-260)
T1 sequence (looked up): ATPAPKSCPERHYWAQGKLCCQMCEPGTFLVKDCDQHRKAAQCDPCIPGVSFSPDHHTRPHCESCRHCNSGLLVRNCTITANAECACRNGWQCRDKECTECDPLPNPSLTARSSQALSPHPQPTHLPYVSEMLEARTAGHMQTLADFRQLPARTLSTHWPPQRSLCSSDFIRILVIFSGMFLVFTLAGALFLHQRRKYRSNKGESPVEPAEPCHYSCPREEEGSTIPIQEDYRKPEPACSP

T2: CD27 protein (His-tagged, Sino Biological Inc. 10039-H08B1) (human, UniProt P26842 20-192)
T2 construct: bought; coated onto ELISA plates; also called human CD27; recombinant protein; not shown: His tag
T2 sequence (looked up): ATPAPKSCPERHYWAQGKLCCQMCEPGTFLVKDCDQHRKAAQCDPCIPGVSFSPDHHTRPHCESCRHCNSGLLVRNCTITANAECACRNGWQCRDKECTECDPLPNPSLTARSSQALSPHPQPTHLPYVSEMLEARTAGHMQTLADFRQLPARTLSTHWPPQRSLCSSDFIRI


Assays:
[1] = molecular target: T1, CD27 expressed on the cell surface …; assay: cell-based or functional assay
[2] = molecular target: T2, CD27 protein (His-tagged, Sino …); assay: ELISA on coated His-tagged CD27
[3] = molecular target: T1, CD27 expressed on the cell surface …; assay: cellular binding assay, HT1080_CD27 cells
Note: test concentration or dose not given here.

Binder	IL-8, cross-linked by F(ab')2 fragment [abs. corr.] [1] [abs. corr.]	IL-8 [abs. corr.] [1] [abs. corr.]	ELISA [abs. corr.] [2] [abs. corr.]	Cellular binding assay [RFU] [3] [RFU]
P018.S.10.A.F05 (antibody, V domains shown, V regions on human Ig constant parts; also called AB27_181) VH: QSVEESGGRLVTPGTPLTLTCTVSGFSLSGYHMCWVRQAPGKGLQYIGIIGSNGVTYYASWAKSRSTITRNTNENTVTLKMTSLTTEDTATYFCARSSGWGARFNLWGQGTLVTVSS VL: AQVLTQTPASVSAAVGGTVTINCQASQSVYNDNELSWYQQKPGQPPKLLIYKASTLTSGVPLRFSGSGSGTQFTLTISDVQSDDAATYYCLGGGSTPSDSTFGGGTEVVVK	1.34	0.267	3.49	335
P018.S.10.A.A06 (antibody, V domains shown, V regions on human Ig constant parts; also called AB27_165) VH: QSVEESGGRLVTPGTPLTLTCTVSGFSLSGYHMCWVRQAPGKGLQYIGIIGSNGNTYYASWAKSRSTITRNTNENTVTLKMTSLTTEDTATYFCARSSGWGARFNLWGQGTLVTVSS VL: AQVLTQTPSSVSAAVGGTVTINCQASQSIYNDNELSWYQQKPGQPPKLLIYKASTLASGVPLRFSGSGSGTQFTLTISDVQSDVAATYYCLGGGMTPSDTTFGGGTEVVVK	1.12	-0.13	3.18	414
P018.S.10.A.G03 (antibody, V domains shown, V regions on human Ig constant parts; also called AB27_182) VH: QSVEESGGRLVTPGTPLTLTCTVSGFTISSYHMCWVRQAPGKGLQYIGIIGSNGNTYYASWAKSRSTITRNTNENTVTLKMTSLTTEDTATYFCARSSGWGARFNLWGQGTLVTVSS VL: AQVLTQTPSSVSAAVGGTVTINCQASQSVYNDNELSWYQQKPGQPPKLLIYKASTLTSGVPLRFSGSGSGTQFTLTISDVQSDDAATYYCLGGGSTPSDSTFGGGTEVVVK	1.3	-0.18	3.31	386
P018.S.05.A.A04 (antibody, V domains shown, V regions on human Ig constant parts; also called AB27_81) VH: QEQLVESGGDLVKPGASLTLTCTASGIDFSSSYYMSWVRQAPGKGLEWIACIDTVDDYTYYASWAKGRFTISKTSSTTVSLQMTSLTAADTATYFCARERIDNNTDCFDLWGPGTLVTISS VL: AQVLTQTPSPVSAAVGGTVTISCQSSQSVVSKNRLAWYQQKPGQPPKLLIWLASKLASGVPSRFRGSGSGTQFTLTISGVQSDDAATYYCQGYYSGAIYAFGGGTDVVVK	1.37	0.226	3.3	369
P018.S.01.A.H02 (antibody, V domains shown, V regions on human Ig constant parts; also called AB27_25) VH: QSVEESGGRLVTPGTPLTLTCTASGFSLSSYHMQWVRQAPGKGLEWIGIIYAGSGNTWYASWAKGRFTISKTSTTVDLKITSPTTEDTAAYFCARQPGGDASDTQLDLWGQGTLVTVSS VL: AAVLTQTASPVSAAVGGTVTINCQSSQSVFDHNQLSWFQHKPGQSPKLLIYRASTLASGVPSRFKGSGSGTQFTLTISDVQSDDAATYYCLGGYSSSSDTVFGGGTEVVVK	2.54	0.3	3.3	317
P018.S.10.A.C06 (antibody, V domains shown, V regions on human Ig constant parts; also called AB27_174) VH: QSLEESGGRLVTPGTPLTLTCTVSGIDLNNNAMTWVRQAPGEGLEWIGIISTADTTTYASWTKGRFTISKTSTTVDLKITSPTTEDTATYFCARAAYFSYGYFNLWGQGTLVTVSS VL: DIVMTQTPASVEAAVGGTVTIKCQASQNIGNALAWYQQKPGQPPKLLIYGASTLASGVPSRFKGSGSGTEFTLTISDLESADATTYFCQSYVYSDGNVFGGGTEVVVK	1.18	0.28	3.39	395
P018.S.06.A.E02 (antibody, V domains shown, V regions on human Ig constant parts; also called AB27_105) VH: QSLEESGGRLVTPGTPLTLTCTVSGIDLNNNAMTWVRQAPGEGLEWIGIISTADTTSYASWTKGRFTISKTSTTVDLKITSPTTEDTATYFCARAAYFSYGYFNLWGQGTLVTVSS VL: DIVMTQTPASVEAAVGGTVTIKCQASQNIGNALAWYQQKSGQPPKLLIYGASTLASGVPSRFKGSGSGTEFTLTISDLESADATTYFCQSYVYSDGNVFGGGTEVVVK	1.22	0.582	3.3	357
P018.S.09.A.E06 (antibody, V domains shown, V regions on human Ig constant parts; also called AB27_156) VH: QSVEESGGRLVTPGTPLTLTCTVSGFSLSSYGMIWVRQAPGKGLEWIAWSSSNDNTYYASWAKGRFTISKTSSTTVDLKMTSLTTEDTATYFCARNGVYSTGNYFDLWGQGTLVTVSS VL: AQVLTQTPSPVSAAVGGTVTINCQASQSVYNNNNLAWYQQKPGQPPKFLIYAASRLPSGVPPRFSGSGSGTQFTLTISDVQSDDAATYYCQGEFDCDSADCFAFGGGTEVVVK	1.73	1.23	3.54	307
P018.S.01.A.B03 (antibody, V domains shown, V regions on human Ig constant parts; also called AB27_4) VH: QSLEESGGRLVTPGTPLTLTCTVSGFSLSSNAMSWVRQAPGEGLEWIGTIYTHGSSYYATWAKGRFTISKTSSTTVDLKMTSLTTEDTATYFCAGWAGGLSLWGPGTLVTVSS VL: DVVMTQTPASVSEPVGGTVTIKCQASEDIDNALAWYQQKPGQAPKILIYSASTLPSGVPSRFKGSGSGTQFTLTISDLESADAATYYCQSAYGGTYGDGFGGGTEVVVK	1.7	0.06	3.3	387
P018.S.10.A.E01 (antibody, V domains shown, V regions on human Ig constant parts; also called AB27_175) VH: QEQLVESGGGLVQPEGSLTLTCTATGIDFSTNYRSCWVRQAPGKGLEWIACIDTDDSDSTYYASWAKGRFTISKTSSTTVTLQMTSLTAADTATYFCTRAYTTSDYAWSFYLWGPGTLVTVSS VL: DLVMTQTPASVEAAVGGTVTIKCQTSQSISKFLNWYQQTPGQPPKLLIYRASTLESGVPSRFEGSGSGTEFTLTISDLESADAATYYCQCTYGGTSGSVWAFGGGTEVVVK	2.54	0.257	3.3	227
P018.S.05.A.A02 (antibody, V domains shown, V regions on human Ig constant parts; also called AB27_80) VH: QSLEESGGRLVTPGTPLTLICTASGIDLSSYGMTWVRQAPGKGLEWIGIISTIGDTYYASWVKGRFTISKTSTTVDLKITSPTTEDTATYFCARYTNSGYAMMYYFNLWGQGTLVTVSS VL: DIVMTQTPASVEAAVGGTVTIKCQASQNIVNALAWYQQKLGQPPKLLIYVASYLASGVPSRFKGSGSGTEFTLTISDLESVDAATYYCQSYYYSSGTSYGQNAFGGGTEVVVK	1.53	0.212	3.3	334
